Values quoted from earlier work as cited in PMC5818423.

Experiments:
CD26 = CD26 (UniProt P27487)
Adenosine A1 receptor = Adenosine A1 receptor (UniProt P30542)
Adenosine A1 receptor, sequence (P30542 whole entry): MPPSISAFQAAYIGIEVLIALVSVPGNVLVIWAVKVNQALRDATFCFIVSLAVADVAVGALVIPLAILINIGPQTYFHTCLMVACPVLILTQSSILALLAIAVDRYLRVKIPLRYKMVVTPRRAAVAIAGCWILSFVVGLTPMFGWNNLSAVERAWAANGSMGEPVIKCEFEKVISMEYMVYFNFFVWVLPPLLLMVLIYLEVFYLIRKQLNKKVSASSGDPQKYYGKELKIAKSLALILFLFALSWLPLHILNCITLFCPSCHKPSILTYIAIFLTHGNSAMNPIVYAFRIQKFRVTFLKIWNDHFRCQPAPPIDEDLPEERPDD

Adenosine deaminase, sequence (P00813 2-363): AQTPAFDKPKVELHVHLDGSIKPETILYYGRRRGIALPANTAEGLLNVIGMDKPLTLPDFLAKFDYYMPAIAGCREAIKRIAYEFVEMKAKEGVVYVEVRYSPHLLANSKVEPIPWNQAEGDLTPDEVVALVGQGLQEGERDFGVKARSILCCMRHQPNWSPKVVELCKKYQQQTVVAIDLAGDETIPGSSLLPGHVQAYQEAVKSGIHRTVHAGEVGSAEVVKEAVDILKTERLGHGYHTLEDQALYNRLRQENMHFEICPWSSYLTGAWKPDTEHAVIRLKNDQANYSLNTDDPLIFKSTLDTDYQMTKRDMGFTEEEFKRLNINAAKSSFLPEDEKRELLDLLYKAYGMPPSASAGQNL
CD26, sequence (P27487 39-766): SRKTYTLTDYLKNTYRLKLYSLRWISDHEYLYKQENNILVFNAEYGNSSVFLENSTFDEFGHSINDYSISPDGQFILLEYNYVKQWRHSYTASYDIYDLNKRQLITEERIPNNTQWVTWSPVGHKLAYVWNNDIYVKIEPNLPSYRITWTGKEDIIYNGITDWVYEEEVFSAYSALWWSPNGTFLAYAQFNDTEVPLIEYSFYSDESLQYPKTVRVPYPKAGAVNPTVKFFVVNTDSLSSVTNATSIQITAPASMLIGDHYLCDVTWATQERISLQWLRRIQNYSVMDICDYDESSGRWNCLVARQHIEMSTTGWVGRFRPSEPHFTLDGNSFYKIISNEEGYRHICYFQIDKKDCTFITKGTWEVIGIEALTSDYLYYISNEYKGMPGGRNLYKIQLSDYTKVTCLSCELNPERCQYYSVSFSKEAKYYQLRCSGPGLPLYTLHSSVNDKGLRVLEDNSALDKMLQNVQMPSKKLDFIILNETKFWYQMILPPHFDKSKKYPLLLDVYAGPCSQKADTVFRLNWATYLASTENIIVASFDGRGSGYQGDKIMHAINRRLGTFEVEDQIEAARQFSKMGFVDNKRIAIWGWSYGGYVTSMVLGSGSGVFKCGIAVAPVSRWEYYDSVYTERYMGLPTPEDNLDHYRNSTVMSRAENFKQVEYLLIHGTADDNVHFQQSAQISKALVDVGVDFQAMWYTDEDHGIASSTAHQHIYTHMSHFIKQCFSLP

## Adenosine deaminase (from UniProt P00813)
CD26
  Kd: 18 nM
Adenosine A1 receptor
  Kd: 230 nM
